US12139520B2 (priority 2020, dated 2024)
Numbered stars: 1 amine (or outer) side, 2 acyl side, 3 side chain; on linkers, the order of the positions; unused ones are H or OH. Bridge positions count the residues as written; N and C are the ends. Square brackets hold non-standard residues; d marks the D form. Ends that are not written are not given here. * marks the point of attachment. C20 diacid = O=C(O)CCCCCCCCCCCCCCCCCCC(=O)*; γGlu = O=C(O)[C@H](CCC(=O)[*:2])N[*:1]; Hyp = O=C(O)[C@@H]1C[C@@H](O)CN1

T1: hAMY3R (human, UniProt P30988)
T1 sequence 1: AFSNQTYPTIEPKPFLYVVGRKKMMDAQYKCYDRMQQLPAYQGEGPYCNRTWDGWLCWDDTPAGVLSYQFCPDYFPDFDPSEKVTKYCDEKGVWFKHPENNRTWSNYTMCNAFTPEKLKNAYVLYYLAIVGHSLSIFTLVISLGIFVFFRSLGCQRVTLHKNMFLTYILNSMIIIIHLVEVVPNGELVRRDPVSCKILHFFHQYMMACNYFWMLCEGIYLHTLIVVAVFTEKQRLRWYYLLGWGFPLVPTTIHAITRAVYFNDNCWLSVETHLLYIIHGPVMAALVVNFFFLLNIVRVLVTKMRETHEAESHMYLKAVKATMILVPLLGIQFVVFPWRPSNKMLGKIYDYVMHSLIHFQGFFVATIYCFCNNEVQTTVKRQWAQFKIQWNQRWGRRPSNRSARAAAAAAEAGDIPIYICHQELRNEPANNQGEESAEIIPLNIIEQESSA
T1 sequence 2: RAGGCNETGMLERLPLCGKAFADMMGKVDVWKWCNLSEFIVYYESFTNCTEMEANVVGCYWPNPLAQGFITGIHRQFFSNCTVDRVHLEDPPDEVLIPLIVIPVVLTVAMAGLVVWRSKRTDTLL


Each binder was assayed against T1, hAMY3R (assay: cell-based or functional assay).

Binder	hAMY3R EC50 (cAMP) [nM]
GCRIGTCTVQRLAHQIYQFTNKDKDNVAPRSKISPQT[Hyp]-NH2 (disulfide 2-7 (inferred); ends not checked) [SEQ ID NO: 198]	0.122
GCRTGTCTVQRLAHQIYQFTDKFKDNVAPRSKISPQF[Hyp]-NH2 (disulfide 2-7 (inferred); ends not checked) [SEQ ID NO: 211]	0.151
GCRTGTCTVQRLAHQIYQFTDKFKDNVAPRSKISPQK[Hyp]-NH2 (disulfide 2-7 (inferred); ends not checked) [SEQ ID NO: 206]	0.13
KCRFGTCTVQRLAHQIYQFTDKDKDNVAPRSKISPQT[Hyp]-NH2 (disulfide 2-7 (inferred); ends not checked) [SEQ ID NO: 205]	0.13
KCNTATCTVQRLAHQIYQTDKDKDNVAPPTNVGSNG[Hyp]-NH2 (disulfide 2-7 (inferred); ends not checked) [SEQ ID NO: 195]	0.112
GCRTGTCTVQRLAHQIYQFTDKDKDNVAPRTKISPNG[Hyp]-NH2 (disulfide 2-7 (inferred); ends not checked) [SEQ ID NO: 197]	0.12
KCRMGTCTVQRLAHQIYQFTDKDKDNVAPRSKISPQT[Hyp]-NH2 (disulfide 2-7 (inferred); ends not checked) [SEQ ID NO: 194]	0.112
GCRTGTCTVQRLAHQIYQFTDKFKDNVAPRSKISPQP[Hyp] (ends and bridges not checked) [SEQ ID NO: 203]	0.127
GCRTGTCTVQRLAHQIHQFTDKFKDNVAPRSKISPQT[Hyp]-NH2 (disulfide 2-7 (inferred); ends not checked) [SEQ ID NO: 193]	0.099
GCRTGTCTVQRLAHQIYQFTDKFKDNVAPRSKISPQH[Hyp]-NH2 (disulfide 2-7 (inferred); ends not checked) [SEQ ID NO: 201]	0.126
GCRTGTCTVQRLAHQIAQFTDKFKDNVAPRSKISPQT[Hyp]-NH2 (disulfide 2-7 (inferred); ends not checked) [SEQ ID NO: 196]	0.114
{C20 diacid-γGlu}-GCRFGTCTVQRLAHFLYQFTDKDKDNVAPRTNVGPQGY-NH2 (disulfide 2-7 (inferred); ends not checked) [SEQ ID NO: 200]	0.126
GCRTGTCTVQRLAHQIYQFTDKDKDNVAPRTNISPQGY [SEQ ID NO: 199]	0.124
GCRTGTCTVQRLAHQIYQFTDKDKDNVAPRTKVSPQGY [SEQ ID NO: 209]	0.136
KCNTATCTVQRLAHQIYQFTDKDKDNVAPRTKVGSNG[Hyp]-NH2 (disulfide 2-7 (inferred); ends not checked) [SEQ ID NO: 20]	0.008
GCRTGTCTVQRLAHQIYQFTDKDKDNVAPRSKVSPNG[Hyp]-NH2 (disulfide 2-7 (inferred); ends not checked) [SEQ ID NO: 204]	0.129
KCNTATCATQRLANFLVHSSNNFGAILPSTKIGSNGY [SEQ ID NO: 207]	0.131
GCRTGTCTVQRLAHQIYQFTDKFKDNVAPRSKISPQTM [SEQ ID NO: 215]	0.161
KCNTATCTVQRLAHQAYQFTDKDKDNVAPPTNVGSNG[Hyp]-NH2 (disulfide 2-7 (inferred); ends not checked) [SEQ ID NO: 210]	0.137
{C20 diacid-γGlu}-GCRFGTCTVQRLAHFLYQFTDKDKDNVAPRTNVGSNTY-NH2 (disulfide 2-7 (inferred); ends not checked) [SEQ ID NO: 208]	0.133
{C20 diacid-γGlu}-KCNTATCTVQRLAHQITQFTDKDKDNVAPPTNVGSNG[Hyp]-NH2 (disulfide 2-7 (inferred); ends not checked) [SEQ ID NO: 22]	0.008
GCRTGTCTVQRLAHQIYQFTDKDKDNVAPRTNISPQG[Hyp]-NH2 (disulfide 2-7 (inferred); ends not checked) [SEQ ID NO: 214]	0.157
GCRTGTCTVQRLAHQIYQFTDKDKDNVAPRTKVSPQG[Hyp]-NH2 (disulfide 2-7 (inferred); ends not checked) [SEQ ID NO: 216]	0.164
GCRFGTCTVQRLAHQIYQFTDKFKDNVAPRSKISPQT[Hyp]-NH2 (disulfide 2-7 (inferred); ends not checked) [SEQ ID NO: 212]	0.153
GCRTGTCTVQRLAHQIWQFTDKFKDNVAPRSKISPQT[Hyp]-NH2 (disulfide 2-7 (inferred); ends not checked) [SEQ ID NO: 213]	0.153
{C20 diacid-γGlu}-KCNTATCTVQRLANQIYQFTDKDKDNVAPPTNVGSNG[Hyp]-NH2 (disulfide 2-7 (inferred); ends not checked) [SEQ ID NO: 21]	0.008
GCRWGTCTVQRLAHQIYQFTDKDKDNVAPSSKISPQT[Hyp]-NH2 (disulfide 2-7 (inferred); ends not checked) [SEQ ID NO: 202]	0.126

The binders below were run against hAM1R (human, UniProt Q16602) (assay: cell-based or functional assay).

Binder	hAM1R EC50 (cAMP) [nM]
GCRIGTCTVQRLAHQIYQFTNKDKDNVAPRSKISPQT[Hyp]-NH2 (disulfide 2-7 (inferred); ends not checked) [SEQ ID NO: 198]	3960
GCRTGTCTVQRLAHQIYQFTDKFKDNVAPRSKISPQF[Hyp]-NH2 (disulfide 2-7 (inferred); ends not checked) [SEQ ID NO: 211]	2760
GCRTGTCTVQRLAHQIYQFTDKFKDNVAPRSKISPQK[Hyp]-NH2 (disulfide 2-7 (inferred); ends not checked) [SEQ ID NO: 206]	> 5000
KCRFGTCTVQRLAHQIYQFTDKDKDNVAPRSKISPQT[Hyp]-NH2 (disulfide 2-7 (inferred); ends not checked) [SEQ ID NO: 205]	3230
KCNTATCTVQRLAHQIYQTDKDKDNVAPPTNVGSNG[Hyp]-NH2 (disulfide 2-7 (inferred); ends not checked) [SEQ ID NO: 195]	> 5000
GCRTGTCTVQRLAHQIYQFTDKDKDNVAPRTKISPNG[Hyp]-NH2 (disulfide 2-7 (inferred); ends not checked) [SEQ ID NO: 197]	2980
KCRMGTCTVQRLAHQIYQFTDKDKDNVAPRSKISPQT[Hyp]-NH2 (disulfide 2-7 (inferred); ends not checked) [SEQ ID NO: 194]	3530
GCRTGTCTVQRLAHQIYQFTDKFKDNVAPRSKISPQP[Hyp] (ends and bridges not checked) [SEQ ID NO: 203]	> 5000
GCRTGTCTVQRLAHQIHQFTDKFKDNVAPRSKISPQT[Hyp]-NH2 (disulfide 2-7 (inferred); ends not checked) [SEQ ID NO: 193]	> 5000
GCRTGTCTVQRLAHQIYQFTDKFKDNVAPRSKISPQH[Hyp]-NH2 (disulfide 2-7 (inferred); ends not checked) [SEQ ID NO: 201]	4880
GCRTGTCTVQRLAHQIAQFTDKFKDNVAPRSKISPQT[Hyp]-NH2 (disulfide 2-7 (inferred); ends not checked) [SEQ ID NO: 196]	> 5000
{C20 diacid-γGlu}-GCRFGTCTVQRLAHFLYQFTDKDKDNVAPRTNVGPQGY-NH2 (disulfide 2-7 (inferred); ends not checked) [SEQ ID NO: 200]	38.2
GCRTGTCTVQRLAHQIYQFTDKDKDNVAPRTNISPQGY [SEQ ID NO: 199]	2980
GCRTGTCTVQRLAHQIYQFTDKDKDNVAPRTKVSPQGY [SEQ ID NO: 209]	1020
KCNTATCTVQRLAHQIYQFTDKDKDNVAPRTKVGSNG[Hyp]-NH2 (disulfide 2-7 (inferred); ends not checked) [SEQ ID NO: 20]	> 5000
GCRTGTCTVQRLAHQIYQFTDKDKDNVAPRSKVSPNG[Hyp]-NH2 (disulfide 2-7 (inferred); ends not checked) [SEQ ID NO: 204]	2980
KCNTATCATQRLANFLVHSSNNFGAILPSTKIGSNGY [SEQ ID NO: 207]	> 5000
GCRTGTCTVQRLAHQIYQFTDKFKDNVAPRSKISPQTM [SEQ ID NO: 215]	> 5000
KCNTATCTVQRLAHQAYQFTDKDKDNVAPPTNVGSNG[Hyp]-NH2 (disulfide 2-7 (inferred); ends not checked) [SEQ ID NO: 210]	> 5000
{C20 diacid-γGlu}-GCRFGTCTVQRLAHFLYQFTDKDKDNVAPRTNVGSNTY-NH2 (disulfide 2-7 (inferred); ends not checked) [SEQ ID NO: 208]	242
{C20 diacid-γGlu}-KCNTATCTVQRLAHQITQFTDKDKDNVAPPTNVGSNG[Hyp]-NH2 (disulfide 2-7 (inferred); ends not checked) [SEQ ID NO: 22]	> 5000
GCRTGTCTVQRLAHQIYQFTDKDKDNVAPRTNISPQG[Hyp]-NH2 (disulfide 2-7 (inferred); ends not checked) [SEQ ID NO: 214]	2980
GCRTGTCTVQRLAHQIYQFTDKDKDNVAPRTKVSPQG[Hyp]-NH2 (disulfide 2-7 (inferred); ends not checked) [SEQ ID NO: 216]	2980
GCRFGTCTVQRLAHQIYQFTDKFKDNVAPRSKISPQT[Hyp]-NH2 (disulfide 2-7 (inferred); ends not checked) [SEQ ID NO: 212]	> 5000
GCRTGTCTVQRLAHQIWQFTDKFKDNVAPRSKISPQT[Hyp]-NH2 (disulfide 2-7 (inferred); ends not checked) [SEQ ID NO: 213]	> 5000
{C20 diacid-γGlu}-KCNTATCTVQRLANQIYQFTDKDKDNVAPPTNVGSNG[Hyp]-NH2 (disulfide 2-7 (inferred); ends not checked) [SEQ ID NO: 21]	> 5000
GCRWGTCTVQRLAHQIYQFTDKDKDNVAPSSKISPQT[Hyp]-NH2 (disulfide 2-7 (inferred); ends not checked) [SEQ ID NO: 202]	> 5000
